Assay results reported in US10584350B2, “Structurally modified COI1” (Board of Trustees of Michigan State University, priority 2016, dated 2020).

B1: R409A: COI1 alanine substitution mutant at R409 (protein)
chain: MEDPDIKRCKLSCVATVDDVIEQVMTYITDPKDRDSASLVCRRWFKIDSETREHVTMALCYTATPDRLSRRFPNLRSLKLKGKPRAAMFNLIPENWGGYVTPWVTEISNNLRQLKSVHFRRMIVSDLDLDRLAKARADDLETLKLDKCSGFTTDGLLSIVTHCRKIKTLLMEESSFSEKDGKWLHELAQHNTSLEVLNFYMTEFAKISPKDLETIARNCRSLVSVKVGDFEILELVGFFKAAANLEEFCGGSLNEDIGMPEKYMNLVFPRKLCRLGLSYMGPNEMPILFPFAAQIRKLDLLYALLETEDHCTLIQKCPNLEVLETRNVIGDRGLEVLAQYCKQLKRLRIERGADEQGMEDEEGLVSQRGLIALAQGCQELEYMAVYVSDITNESLESIGTYLKNLCDFALVLLDREERITDLPLDNGVRSLLIGCKKLRRFAFYLRQGGLTDLGLSYIGQYSPNVRWMLLGYVGESDEGLMEFSRGCPNLQKLEMRGCCFSERAIAAAVTKLPSLRYLWVQGYRASMTGQDLMQMARPYWNIELIPSRRVPEVNQQGEIREMEHPAHILAYYSLAGQRTDCPTTVRVLKEPI
B2: R496A: COI1 alanine substitution mutant at R496 (protein)
chain: MEDPDIKRCKLSCVATVDDVIEQVMTYITDPKDRDSASLVCRRWFKIDSETREHVTMALCYTATPDRLSRRFPNLRSLKLKGKPRAAMFNLIPENWGGYVTPWVTEISNNLRQLKSVHFRRMIVSDLDLDRLAKARADDLETLKLDKCSGFTTDGLLSIVTHCRKIKTLLMEESSFSEKDGKWLHELAQHNTSLEVLNFYMTEFAKISPKDLETIARNCRSLVSVKVGDFEILELVGFFKAAANLEEFCGGSLNEDIGMPEKYMNLVFPRKLCRLGLSYMGPNEMPILFPFAAQIRKLDLLYALLETEDHCTLIQKCPNLEVLETRNVIGDRGLEVLAQYCKQLKRLRIERGADEQGMEDEEGLVSQRGLIALAQGCQELEYMAVYVSDITNESLESIGTYLKNLCDFRLVLLDREERITDLPLDNGVRSLLIGCKKLRRFAFYLRQGGLTDLGLSYIGQYSPNVRWMLLGYVGESDEGLMEFSRGCPNLQKLEMAGCCFSERAIAAAVTKLPSLRYLWVQGYRASMTGQDLMQMARPYWNIELIPSRRVPEVNQQGEIREMEHPAHILAYYSLAGQRTDCPTTVRVLKEPI
B3: A384N: COI1 substitution mutant at A384 (protein)
chain: MEDPDIKRCKLSCVATVDDVIEQVMTYITDPKDRDSASLVCRRWFKIDSETREHVTMALCYTATPDRLSRRFPNLRSLKLKGKPRAAMFNLIPENWGGYVTPWVTEISNNLRQLKSVHFRRMIVSDLDLDRLAKARADDLETLKLDKCSGFTTDGLLSIVTHCRKIKTLLMEESSFSEKDGKWLHELAQHNTSLEVLNFYMTEFAKISPKDLETIARNCRSLVSVKVGDFEILELVGFFKAAANLEEFCGGSLNEDIGMPEKYMNLVFPRKLCRLGLSYMGPNEMPILFPFAAQIRKLDLLYALLETEDHCTLIQKCPNLEVLETRNVIGDRGLEVLAQYCKQLKRLRIERGADEQGMEDEEGLVSQRGLIALAQGCQELEYMNVYVSDITNESLESIGTYLKNLCDFRLVLLDREERITDLPLDNGVRSLLIGCKKLRRFAFYLRQGGLTDLGLSYIGQYSPNVRWMLLGYVGESDEGLMEFSRGCPNLQKLEMRGCCFSERAIAAAVTKLPSLRYLWVQGYRASMTGQDLMQMARPYWNIELIPSRRVPEVNQQGEIREMEHPAHILAYYSLAGQRTDCPTTVRVLKEPI
B4: A384P: COI1 substitution mutant at A384 (protein)
chain: MEDPDIKRCKLSCVATVDDVIEQVMTYITDPKDRDSASLVCRRWFKIDSETREHVTMALCYTATPDRLSRRFPNLRSLKLKGKPRAAMFNLIPENWGGYVTPWVTEISNNLRQLKSVHFRRMIVSDLDLDRLAKARADDLETLKLDKCSGFTTDGLLSIVTHCRKIKTLLMEESSFSEKDGKWLHELAQHNTSLEVLNFYMTEFAKISPKDLETIARNCRSLVSVKVGDFEILELVGFFKAAANLEEFCGGSLNEDIGMPEKYMNLVFPRKLCRLGLSYMGPNEMPILFPFAAQIRKLDLLYALLETEDHCTLIQKCPNLEVLETRNVIGDRGLEVLAQYCKQLKRLRIERGADEQGMEDEEGLVSQRGLIALAQGCQELEYMPVYVSDITNESLESIGTYLKNLCDFRLVLLDREERITDLPLDNGVRSLLIGCKKLRRFAFYLRQGGLTDLGLSYIGQYSPNVRWMLLGYVGESDEGLMEFSRGCPNLQKLEMRGCCFSERAIAAAVTKLPSLRYLWVQGYRASMTGQDLMQMARPYWNIELIPSRRVPEVNQQGEIREMEHPAHILAYYSLAGQRTDCPTTVRVLKEPI
B5: A384L: COI1 substitution mutant at A384 (protein)
chain: MEDPDIKRCKLSCVATVDDVIEQVMTYITDPKDRDSASLVCRRWFKIDSETREHVTMALCYTATPDRLSRRFPNLRSLKLKGKPRAAMFNLIPENWGGYVTPWVTEISNNLRQLKSVHFRRMIVSDLDLDRLAKARADDLETLKLDKCSGFTTDGLLSIVTHCRKIKTLLMEESSFSEKDGKWLHELAQHNTSLEVLNFYMTEFAKISPKDLETIARNCRSLVSVKVGDFEILELVGFFKAAANLEEFCGGSLNEDIGMPEKYMNLVFPRKLCRLGLSYMGPNEMPILFPFAAQIRKLDLLYALLETEDHCTLIQKCPNLEVLETRNVIGDRGLEVLAQYCKQLKRLRIERGADEQGMEDEEGLVSQRGLIALAQGCQELEYMLVYVSDITNESLESIGTYLKNLCDFRLVLLDREERITDLPLDNGVRSLLIGCKKLRRFAFYLRQGGLTDLGLSYIGQYSPNVRWMLLGYVGESDEGLMEFSRGCPNLQKLEMRGCCFSERAIAAAVTKLPSLRYLWVQGYRASMTGQDLMQMARPYWNIELIPSRRVPEVNQQGEIREMEHPAHILAYYSLAGQRTDCPTTVRVLKEPI
B6: A384G: COI1 substitution mutant at A384 (protein)
chain: MEDPDIKRCKLSCVATVDDVIEQVMTYITDPKDRDSASLVCRRWFKIDSETREHVTMALCYTATPDRLSRRFPNLRSLKLKGKPRAAMFNLIPENWGGYVTPWVTEISNNLRQLKSVHFRRMIVSDLDLDRLAKARADDLETLKLDKCSGFTTDGLLSIVTHCRKIKTLLMEESSFSEKDGKWLHELAQHNTSLEVLNFYMTEFAKISPKDLETIARNCRSLVSVKVGDFEILELVGFFKAAANLEEFCGGSLNEDIGMPEKYMNLVFPRKLCRLGLSYMGPNEMPILFPFAAQIRKLDLLYALLETEDHCTLIQKCPNLEVLETRNVIGDRGLEVLAQYCKQLKRLRIERGADEQGMEDEEGLVSQRGLIALAQGCQELEYMGVYVSDITNESLESIGTYLKNLCDFRLVLLDREERITDLPLDNGVRSLLIGCKKLRRFAFYLRQGGLTDLGLSYIGQYSPNVRWMLLGYVGESDEGLMEFSRGCPNLQKLEMRGCCFSERAIAAAVTKLPSLRYLWVQGYRASMTGQDLMQMARPYWNIELIPSRRVPEVNQQGEIREMEHPAHILAYYSLAGQRTDCPTTVRVLKEPI
B7: A384T: COI1 substitution mutant at A384 (protein)
chain: MEDPDIKRCKLSCVATVDDVIEQVMTYITDPKDRDSASLVCRRWFKIDSETREHVTMALCYTATPDRLSRRFPNLRSLKLKGKPRAAMFNLIPENWGGYVTPWVTEISNNLRQLKSVHFRRMIVSDLDLDRLAKARADDLETLKLDKCSGFTTDGLLSIVTHCRKIKTLLMEESSFSEKDGKWLHELAQHNTSLEVLNFYMTEFAKISPKDLETIARNCRSLVSVKVGDFEILELVGFFKAAANLEEFCGGSLNEDIGMPEKYMNLVFPRKLCRLGLSYMGPNEMPILFPFAAQIRKLDLLYALLETEDHCTLIQKCPNLEVLETRNVIGDRGLEVLAQYCKQLKRLRIERGADEQGMEDEEGLVSQRGLIALAQGCQELEYMTVYVSDITNESLESIGTYLKNLCDFRLVLLDREERITDLPLDNGVRSLLIGCKKLRRFAFYLRQGGLTDLGLSYIGQYSPNVRWMLLGYVGESDEGLMEFSRGCPNLQKLEMRGCCFSERAIAAAVTKLPSLRYLWVQGYRASMTGQDLMQMARPYWNIELIPSRRVPEVNQQGEIREMEHPAHILAYYSLAGQRTDCPTTVRVLKEPI

How the values were obtained:
COI1-JAZ9 interaction [1] = conditions: Y2H; Thines et al., Melotto et al.; cited from earlier work
COI1-JAZ9 interaction [2] = test: Y2H assays on plates for protein-protein interaction; assay type: cell-based, Arabidopsis; conditions: 10 μM COR, yeast
Experimental: (§1) Yeast EGY48 strain carrying the p8Op:LacZ reporter plasmid was co-transformed with pGilda:COI1 (or COI1 mutants) and pB42AD:JAZ9 (or other JAZs) (Clontech). Colonies were selected on SD minimal plates (BD Biosciences) supplemented with the—uracil (U)/-tryptophan (W)/-histidine (H) amino acid drop out solution (Clontech). Yeast colonies were cultured overnight in liquid SD-UWH medium, harvested, washed twice in sterile water, and the absorbance (OD600) of the cultures was adjusted to 0.2 in liquid SD galactose/raffinose-UWH medium (BD Biosciences).
For Y2H assays on plates, 10-μL culture was spotted onto SD galactose/raffinose-UWH plates with 80 μg/mL X-gal and 10 μM COR (Sigma-Aldrich). Blue color indicated protein-protein interactions after 5-7 days of incubation at 30° C.

COI1-JAZ9 interaction [3] = test: Quantitative liquid Y2H assays (Beta-Glo, RLU); assay type: cell-based, Arabidopsis; conditions: liquid Y2H, yeast; for COR-dependent COI1-JAZ9 interaction: 1 μM COR; for JA-Ile-dependent COI1-JAZ9 interaction: 10 or 30 μM JA-Ile
Experimental: as §1
For liquid Y2H assays, cultures were supplemented with designated concentrations of JA-Ile (10 or 30 μM), COR (1 μM), or DMSO. After 16-h incubation with ligands, the liquid cultures were processed through the Beta-Glo Assay system (Promega) for detecting the β-galactosidase activity. […] Protein expression in yeast was detected using anti-LexA antibody (1:5,000; Upstate Biotechnology) for detection of COI1 expression from pGilda vector and anti-HA (1:5,000; Roche Life Science) antibody for detection of JAZ9 expression in pB42AD vector.

Molecule | activity in yeast (COI1-JAZ9 interaction [1]) | COR-dependent COI1-JAZ9 interaction (COI1-JAZ9 interaction [2]) | COR-dependent COI1-JAZ9 interaction (COI1-JAZ9 interaction [3]) | JA-Ile-dependent COI1-JAZ9 interaction (COI1-JAZ9 interaction [3]) | differential effect on JA-Ile-dependent vs COR-dependent COI1-JAZ9 interaction (COI1-JAZ9 interaction [3])
CC/C=C\C[C@H]1C(=O)CC[C@@H]1CC(=O)O [JA, jasmonic acid] | not active | – | – | – | –
B1 | – | reduced | reduced | reduced | –
B2 | – | reduced | – | – | affect JAIle-dependent interaction more than COR-dependent interaction
B3 | – | – | completely disrupted | completely disrupted | –
B4 | – | – | completely disrupted | completely disrupted | –
B5 | – | – | completely disrupted | completely disrupted | –
B6 | – | – | completely disrupted | completely disrupted | –
B7 | – | – | completely disrupted | completely disrupted | –
